Source: patent US20080124758A1, “Transmembrane domain removed recombinant human tyrosinase and method of producing the same” (Chung-Ang University Industry-Academy Cooperation Foundation, priority 2006, published 2008)
Like-named read-outs stand apart in the source and are kept apart here.

Key:
[1] = Tyrosine hydroxylase activity of human tyrosinase (method of Husain et al., fluorescence of L-dopa formed); type: biochemical; details: for Increase of specific tyrosine hydroxylase activity of the His-bind purified enzyme compared to the crude extract: His-bind resin purified vs crude extract
Protocol: (§1) The measuring of the tyrosine hydroxylase activity was conducted according to a method of Husain et al. (Husain et al., J. Invest. Dermatol. 78: 243-252, 1982). Hydroxylation was conducted within an L-Dopa concentration range of 0-30 mM. A standard curve with respect to L-dopa was obtained. Using the standard curve, the amount of L-dopa produced after the reaction was determined. The reaction solution was prepared by adding 100 μM of L-tyrosine, L-dopa of each concentration, 4 mM of ascorbic acid and 100 μl of human tyrosinase into 50 mM Potassium phosphate buffer solution (pH 6.8) to obtain 2.5 ml of the solution. After that, the reaction was conducted at 37° C. for 3 hours. At this time, a reaction was conducted without adding the purified human tyrosinase as a control. The product was subjected to excitation at 360 nm and then was subjected to an emission at 490 nm by a method of Ram et al. (Ram et al., J. Biol. Chem. 267: 23707-23712, 1992). The intensity of the emission was measured. The measured value was converted into the concentration of L-dopa and the enzyme activity was measured. The specific activity with respect to the tyrosine hydroxylase activity of the purified human tyrosinase of the present invention was determined as the created mol number (mmol) of the L-dopa with respect to the amount of the enzyme (μg) per hour.

[2] = Dopa oxidase activity of human tyrosinase (method of Fling et al., dopachrome at 475 nm); type: biochemical
Protocol: (§2) The measurement of the dopa oxidase activity was conducted by the method of Fling et al. (Fling et al. J. Biol. Chem. 238: 2045-2053, 1963). The transformation of L-dopa which was the substrate of dopa oxidase into a brown product of dopachrome by tyrosinase was measured at 475 nm. […] 3 mM of L-dopa was added into 50 mM of tris-HCl buffer solution (pH 7.5) and incubated at 370 for 10 minutes. Then, 30 μl of human tyrosinase was added and the absorbance change was measured at 475 nm for 3 minutes. At this time, the unit of the activity of the enzyme was defined as follows. When 1 μmole of dopachrome was produced for 1 minute, this activity was defined as 1 unit (μmole/min). Specific activity was defined as 1 unit per 1 mg enzyme.

[3] = read-out: Km value to L-tyrosine, cited from earlier work
[4] = literature value, Spritz et al. 1997; cited from earlier work
[5] = Influence of L-tyrosine concentration, Km by Lineweaver-Burk plot; type: biochemical
Protocol: as §1
The concentration of the substrate, L-tyrosine was given in a range of 0.01-1 mM, and the influence of the substrate concentration onto the recombinant human tyrosinase prepared by example 2 was evaluated. It is conducted by the same method of measuring the tyrosine hydroxylase activity explained in the experiment 1. The Km value of the recombinant human tyrosinase according to the present invention was calculated by the Lineweaver-Burk Plot (Lineweaver et al., J. Am, Chem. Soc., 56; 658-666, 1934).

[6] = Influence of L-dopa concentration, Km by Lineweaver-Burk plot; type: biochemical; details: L-dopa 0.05-5 mM
Protocol: as §2, with “Specific activity was defined as 1 unit per 1 mg enzyme.” left out
The concentration of the substrate, L-tyrosine was given in a range of 0.01-1 mM, and the influence of the substrate concentration onto the recombinant human tyrosinase prepared by example 2 was evaluated. […] The Km value of the recombinant human tyrosinase according to the present invention was calculated by the Lineweaver-Burk Plot (Lineweaver et al., J. Am, Chem. Soc., 56; 658-666, 1934).
The concentration of L-dopa, which is another substrate of the human tyrosinase was given in a range of 0.05-5 mM and the influence of the substrate concentration with respect to the recombinant human tyrosinase prepared in example 2 was examined. The dopa oxidase activity is measured by the same method of experiment 2. […]

[7] = purification step: DEAE-Sephacel chromatography
[8] = purification step: crude extract
[9] = purification step: His.bind resin chromatography

Molecule	Total activity (dopa oxidase) [2, 7] [units]	Total activity (dopa oxidase) [2, 9] [units]	Total activity (dopa oxidase) [2, 8] [units]	Increase of specific tyrosine hydroxylase activity of the His-bind purified enzyme compared to the crude extract [1]	Specific activity (tyrosine hydroxylase) [1, 8] [µmol/mg/h]	Purification degree (dopa oxidase specific activity relative to crude extract) [2, 7] [fold]	Specific activity (dopa oxidase) [2, 7] [units/mg]	Purification degree (dopa oxidase specific activity relative to crude extract) [2, 9] [fold]	Specific activity (dopa oxidase) [2, 9] [units/mg]	Purification degree (dopa oxidase specific activity relative to crude extract) [2, 8] [fold]	Specific activity (dopa oxidase) [2, 8] [units/mg]	further results
purified tyrosinase from human HeLa cell: Tyrosinase purified from human HeLa cell (Spritz et al., 1997) (protein, UniProt P14679 19-529, looked up) Tyrosinase: HFPRACVSSKNLMEKECCPPWSGDRSPCGQLSGRGSCQNILLSNAPLGPQFPFTGVDDRESWPSVFYNRTCQCSGNFMGFNCGNCKFGFWGPNCTERRLLVRRNIFDLSAPEKDKFFAYLTLAKHTISSDYVIPIGTYGQMKNGSTPMFNDINIYDLFVWMHYYVSMDALLGGSEIWRDIDFAHEAPAFLPWHRLFLLRWEQEIQKLTGDENFTIPYWDWRDAEKCDICTDEYMGGQHPTNPNLLSPASFFSSWQIVCSRLEEYNSHQSLCNGTPEGPLRRNPGNHDKSRTPRLPSSADVEFCLSLTQYESGSMDKAANFSFRNTLEGFASPLTGIADASQSSMHNALHIYMNGTMSQVQGSANDPIFLLHHAFVDSIFEQWLRRHRPLQEVYPEANAPIGHNRESYMVPFIPLYRNGDFFISSKDLGYDYSYLQDSDPDSFQDYIKSYLEQASRIWSWLLGAAMVGAVLTALLAGLVSLLCRHKRKQLPEEKQPLLMEKEDYHSLYQSHL												Specific activity with respect to tyrosine hydroxylase activity [4]: 22.3±0.01 μmol/1 g/h
Recombinant human tyrosinase of example 2 (pET-hTyrosinase(TM-)): Human tyrosinase with C-terminal transmembrane domain (55 amino acids) removed, SEQ ID NO: 2, expressed in E. coli with six … (protein, C-terminal His6 tag; Human tyrosinase) MHFPRACVSSKNLMEKECCPPWSGDRSPCGQLSGRGSCQNILLSNAPLGPQFPFTGVDDRESWPSVFYNRTCQCSGNFMGFNCGNCKFGFWGPNCTERRLLVRRNIFDLSAPEKDKFFAYLTLAKHTISSDYVIPIGTYGQMKNGSTPMFNDINIYDLFVWMHYYVSMDALLGGSEIWRDIDFAHEAPAFLPWHRLFLLRWEQEIQKLTGDENFTIPYWDWRDAEKCDICTDEYMGGQHPTNPNLLSPASFFSSWQIVCSRLEEYNSHQSLCNGTPEGPLRRNPGNHDKSRTPRLPSSADVEFCLSLTQYESGSMDKAANFSFRNTLEGFASPLTGIADASQSSMHNALHIYMNGTMSQVQGSANDPIFLLHHAFVDSIFEQWLRRHRPLQEVYPEANAPIGHNRESYMVPFIPLYRNGDFFISSKDLGYDYSYLQDSDPDSFQDYIKSYLEQASRI		2977	6200	about 52 times	2.1 ± 0.05			46	807	1.0	17.7	Specific activity (tyrosine hydroxylase) ([1]; purification step: His.bind resin chromatography (finally purified), listed as Recombinant human tyrosinase of example 2 (pET-hTyrosinase(TM-))): 108.3 ± 2.10 µmol/mg/h; Specific activity (tyrosine hydroxylase) ([1]; purification step: His.bind resin chromatography (finally purified), listed as recombinant human tyrosinase): 108.3 ± 2.10 µmol/mg/h; Specific dopa oxidase activity, times higher than recombinant human tyrosinase of comparative example 1 ([2]; vs Korean Patent Application No. 2001-0057379 (comparative example 1)): about 31 times; Specific dopa oxidase activity, times higher than recombinant human tyrosinase of comparative example 2 ([2]; vs Korean Patent Application No. 2002-0073728 (comparative example 2)): about 1.2 times; Affinity onto the substrate L-tyrosine, times higher [5]: ≥ 100 times; Km ([5]; L-tyrosine 0.01-1 mM, Lineweaver-Burk plot): 1.32 µM; Km to L-tyrosine, times lower than Km of earlier tyrosinases ([5]; at the most, vs 0.17 mM, 2.34 μM and 0.2 mM): about 130 times; Km [6]: 340 µM

Now from value to molecule, other results behind:

Total activity (dopa oxidase) [2, 7] [units]	Total activity (dopa oxidase) [2, 9] [units]	Total activity (dopa oxidase) [2, 8] [units]	Molecule	Increase of specific tyrosine hydroxylase activity of the His-bind purified enzyme compared to the crude extract [1]	Specific activity (tyrosine hydroxylase) [1, 8] [µmol/mg/h]	Purification degree (dopa oxidase specific activity relative to crude extract) [2, 7] [fold]	Specific activity (dopa oxidase) [2, 7] [units/mg]	Purification degree (dopa oxidase specific activity relative to crude extract) [2, 9] [fold]	Specific activity (dopa oxidase) [2, 9] [units/mg]	Purification degree (dopa oxidase specific activity relative to crude extract) [2, 8] [fold]	Specific activity (dopa oxidase) [2, 8] [units/mg]	further results
4460	1922	5700	Recombinant human tyrosinase of comparative example 2 (pET-hTyr): Recombinant human tyrosinase produced in E. coli with pET-hTyr vector by the method of Korean Patent Application No. 2002-0073728 (protein, UniProt P14679 19-529, looked up) Tyrosinase: HFPRACVSSKNLMEKECCPPWSGDRSPCGQLSGRGSCQNILLSNAPLGPQFPFTGVDDRESWPSVFYNRTCQCSGNFMGFNCGNCKFGFWGPNCTERRLLVRRNIFDLSAPEKDKFFAYLTLAKHTISSDYVIPIGTYGQMKNGSTPMFNDINIYDLFVWMHYYVSMDALLGGSEIWRDIDFAHEAPAFLPWHRLFLLRWEQEIQKLTGDENFTIPYWDWRDAEKCDICTDEYMGGQHPTNPNLLSPASFFSSWQIVCSRLEEYNSHQSLCNGTPEGPLRRNPGNHDKSRTPRLPSSADVEFCLSLTQYESGSMDKAANFSFRNTLEGFASPLTGIADASQSSMHNALHIYMNGTMSQVQGSANDPIFLLHHAFVDSIFEQWLRRHRPLQEVYPEANAPIGHNRESYMVPFIPLYRNGDFFISSKDLGYDYSYLQDSDPDSFQDYIKSYLEQASRIWSWLLGAAMVGAVLTALLAGLVSLLCRHKRKQLPEEKQPLLMEKEDYHSLYQSHL	about 49 times	1.8 ± 0.05	5	69.7	49	699	1.0	14.3	Specific activity (tyrosine hydroxylase) [1, 7]: 11.0 ± 0.12 µmol/mg/h; Specific activity (tyrosine hydroxylase) ([1]; purification step: His.bind resin chromatography (finally purified)): 88.0 ± 1.50 µmol/mg/h; Km ([3]; value from previous filing): 2.34 µM
64	26	136	Recombinant human tyrosinase of comparative example 1 (pHis-hTyr): Recombinant human tyrosinase produced in E. coli with pHis-hTyr vector by the method of Korean Patent Application No. 2001-0057379 (protein, UniProt P14679 19-529, looked up, His tag) Tyrosinase: HFPRACVSSKNLMEKECCPPWSGDRSPCGQLSGRGSCQNILLSNAPLGPQFPFTGVDDRESWPSVFYNRTCQCSGNFMGFNCGNCKFGFWGPNCTERRLLVRRNIFDLSAPEKDKFFAYLTLAKHTISSDYVIPIGTYGQMKNGSTPMFNDINIYDLFVWMHYYVSMDALLGGSEIWRDIDFAHEAPAFLPWHRLFLLRWEQEIQKLTGDENFTIPYWDWRDAEKCDICTDEYMGGQHPTNPNLLSPASFFSSWQIVCSRLEEYNSHQSLCNGTPEGPLRRNPGNHDKSRTPRLPSSADVEFCLSLTQYESGSMDKAANFSFRNTLEGFASPLTGIADASQSSMHNALHIYMNGTMSQVQGSANDPIFLLHHAFVDSIFEQWLRRHRPLQEVYPEANAPIGHNRESYMVPFIPLYRNGDFFISSKDLGYDYSYLQDSDPDSFQDYIKSYLEQASRIWSWLLGAAMVGAVLTALLAGLVSLLCRHKRKQLPEEKQPLLMEKEDYHSLYQSHL			3.5	1.4	65.0	26.0	1.0	0.4	Km ([3]; value from previous filing or literature): 170 µM
